Measured values published in US20180021429A1, “ANTICANCER AGENTS OR ANTIMETASTATIC AGENTS USING FSTL1 AND COMBINATION DRUG THEREOF” (PHARMA FOODS INTERNATIONAL CO., LTD., priority 2015, published 2018).
Residue numbers refer to the chain shown, from its start. Blank lines part the entries; values can stand above or below the molecule they belong to.

Legend:
[1] = biological target: T1, FSTL1 (Homo sapiens, UniProt Q12841); assay: Affinity of mouse chimeric antibodies for human FSTL1, Biacore T-200 (Example 33); format: binding
T1 sequence (Q12841 21-308): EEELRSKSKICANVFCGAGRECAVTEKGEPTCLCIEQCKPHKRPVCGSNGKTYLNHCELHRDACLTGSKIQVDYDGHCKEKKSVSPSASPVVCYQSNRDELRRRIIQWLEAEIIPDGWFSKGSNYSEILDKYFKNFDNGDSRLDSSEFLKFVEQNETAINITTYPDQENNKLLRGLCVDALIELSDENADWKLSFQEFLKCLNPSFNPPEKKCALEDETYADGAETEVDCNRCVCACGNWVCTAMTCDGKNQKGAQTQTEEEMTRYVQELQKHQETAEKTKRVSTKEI
Protocol: The mouse chimeric antibodies were immobilized onto Sensor Chip CM5 (GE Healthcare Japan Corp., BR-1005-30) using Mouse Antibody Capture Kit (GE Healthcare Japan Corp., BR-1008-38), and their affinity for human FSTL1 was calculated using Biacore T-200 (GE Healthcare Japan Corp.).
First, the exhaustive activity comparison of the obtained antibodies was conducted with the human FSTL1 concentration fixed to 10 μg/ml (Table 33-1, FIG. 58).
Next, the KD values of clone #6-55, #7-34, and #13 presumed to have high affinity in FIG. 58 were calculated with the antigen concentration adjusted to 0 to 20 μg/ml (Table 35-2).
First, the exhaustive activity comparison of the obtained antibodies was conducted with the human FSTL1 concentration fixed to 10 μg/ml (Table 33-1, FIG. 90).
Next, the KD values of clone #6-55, #7-34, and #13 presumed to have high affinity in FIG. 90 were calculated with the antigen concentration adjusted to 0 to 20 μg/ml (Table 35-2).

[2] = biological target: T2, mouse FSTL1 (Mus musculus, UniProt Q62356); assay: ELISA binding activity of purified antibody against mouse FSTL1
T2 construct: AAA linker + 10xHis (C); made in house; host or cells: Expi293 (transient expression; purified from culture supernatant on HisPur Cobalt Resin)
T2 sequence (Q62356 with tags, fused parts or gaps): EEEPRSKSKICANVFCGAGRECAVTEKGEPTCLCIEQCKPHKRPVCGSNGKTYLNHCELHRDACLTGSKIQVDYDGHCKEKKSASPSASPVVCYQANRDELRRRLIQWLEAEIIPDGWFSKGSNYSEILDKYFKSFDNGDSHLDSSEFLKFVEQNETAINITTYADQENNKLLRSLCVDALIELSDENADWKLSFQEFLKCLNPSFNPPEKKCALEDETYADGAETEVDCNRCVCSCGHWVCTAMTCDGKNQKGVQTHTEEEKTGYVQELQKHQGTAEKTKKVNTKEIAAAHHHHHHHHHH
Protocol: The reactivity of the obtained antibody clones described above with FSTL1 was evaluated by ELISA under the following conditions.
(Table 2 ELISA Conditions for Binding Activity Evaluation of Purified Antibody)
Antibodies used: anti-dinitrophenyl (DNP) antibody (negative control), #5-2, #5-3, #5-8, #5-10, #5-43, #6-55, and #7-34
FIGS. 96 and 97 show results of evaluating binding activity under the condition of Table 3 as to clones differing in screening and antibody purification timings.
(Table 3 ELISA Conditions for Binding Activity Evaluation of Purified Antibody)

[3] = tested on: GFP-positive and Snail-positive B16-F10 tumor cells; assay: In vivo, intratumoral administration, Snail-positive B16-F10 bone metastasis model (Example 17); parameters: species or system mouse; details: intratumoral 200 μg/0.1 mL/tumor on day 7; day 14
Description: Three antibodies were comparatively analyzed for their antitumor effects and an immunosuppression-mitigating effect using bone metastasis models in which mouse melanoma cells B16-F10 forced to express Snail were subcutaneously and intravenously transplanted in C57BL/6N mice.
1. Experiment Group (n=5) • 1. No treatment • 2. Control IgG (anti-DNP) • 3. Anti-FSTL1 Clone #6-55 • 4. Anti-FSTL1 Clone #7-34 • 5. Anti-FSTL1 Clone #8-1
• Day 0: transplantation of GFP-positive and Snail-positive B16-F10 tumor cells (5×10^5 cells subcutaneously & 1×10^5 cells intravenously) • Day 7: intratumoral administration of the antibody (200 μg/0.1 mL/tumor) • Day 14: various assays (with a focus on flow cytometry analysis)
• Effects on the growth of subcutaneous tumor (calculation of tumor volume by tumor size measurement): measured 7, 11, and 14 days after tumor implantation (FIG. 41C) • Effects on bone metastasis (GFP-positive tumor cells in bone marrow) (FIG. 41A) • Effects on the expansion of mesenchymal stem cells (CD45-negative cells in bone marrow and in the spleen) (FIGS. 41B and 41D) • Effects on the expansion of immunosuppressive Treg cells (CD4-positive and Foxp3-positive cells in bone marrow or the spleen) (FIG. 41D) • Other immunosuppressive properties (FIG. 41D)
In order to evaluate in vivo antibody activity, antitumor effects and immunosuppression-mitigating effects were comparatively analyzed using bone metastasis models in which mouse melanoma cells ([…]) forced to express Snail were subcutaneously and intravenously transplanted in C57BL/6N mice. […]
It is known that when Snail-positive tumor cells are subcutaneously or intravenously transplanted to mice, the tumor metastasizes preferentially to bone marrow in addition to various organs, and this incurs the expansion of mesenchymal stem cells (MSCs) originating in the bone marrow, thereby systemically and strongly suppressing the induction of antitumor immunity (Cancer Research 73: 6185, 2013). […] The percentage (%) of CD45^− cells in the bone marrow cells was analyzed by flow cytometry. […]

[4] = ELISA Table 3 conditions, FIG. 97B

affinity in an assay system using surface plasmon resonance [1]: strong affinity
B1: #13: chicken-mouse chimeric anti-FSTL1 antibody clone; variable regions SEQ ID NO: 815 (light), 817 (heavy) (antibody, V domains shown)
VH: AVTLDESGGGLQTPGGGLSLVCKASGFTFSSVTMQWVRQAPGKGLEWVASICSGSSTYYGPAVKGRATISRDNGQNTVRLQLNNLRAEDTATYYCAKIVGRGRWSCTSAAYNIDAWGHGTEVIVSS
VL: ASTQPSSVSANPGETVKITCSGGGNNYGWYQQKSPGSAPVTVIYNNNNRPSNIPSRFSGSKSGSTNTLTITGVQAEDEAVYYCGSYDSSSDSGIFGAGTTLTVL
modifications: mouse constant regions

binding activity against mouse FSTL1 [2, 4]: no binding activity
B2: #8-4: chicken-mouse chimeric anti-FSTL1 antibody clone; variable regions SEQ ID NO: 795 (light), 797 (heavy) (antibody, V domains shown)
VH: AVTLDESGGGLQTPGGGLSLVCKGSGFTLSSFNMFWVRQAPGKGLEWVAGVGKDGGTAYGAAVDGRATISRDSGQSTVRLQLNNLRAEDTGTYFCAKAAGGCSYSWCGAYVGDLDAWGHGTEVIVSS
VL: ASSQPSSVSANPGETVKITCSGGSGYYYGWYQQKSPGSAPVTVIYNNDNKPSDIPSRFSGSKSGSTGTLTITGVQVEDEAVYFCGGYDNSGTGIFGAGTTLTVL
modifications: mouse constant regions

B3: #33: chicken-mouse chimeric anti-FSTL1 antibody clone; variable regions SEQ ID NO: 823 (light), 825 (heavy) (antibody, V domains shown)
VH: AVTLDESGGGLQTPGGGLSLVCKASGFTFSSFNMNWVRQAPGKGLEYVAEISGTGSSTYYGSAVKGRATISRDNGQSTVRLQLNNLRAEDTATYFCARGDGAYSIDAWGHGTEVIVSS
VL: ASTQPSSVSANPGETVEITCSGDSSYYGWFQQKSPGSAPVTVIYDNTNRPSDIPSRFSGSKSGSTATLTITGVRAEDEAVYYCGGYDSSTYDGIFGAGTTLTVL
modifications: mouse constant regions
affinity in an assay system using surface plasmon resonance [1]: strong affinity

B4: #6-55: chicken-mouse chimeric anti-FSTL1 antibody clone; variable regions SEQ ID NO: 783 (light), 785 (heavy) (antibody, V domains shown)
VH: AVTLDESGGGLQTPGGALSLVCKGSGFTFTSVTMQWVRQAPGKGLEWVASVCSGSSTYYAPAVKGRATISRDNGQSTVRLQLSNLRPEDTGTYYCAKIAGRARWSCTSAAYNIDAWGHGTEVIVSS
VL: ASTQPSSVSAIPGETVKITCSGGGNNYGWYQQRSPGSAPVTVIYYNDNRPSNIPSRFSGSTSGSTSTLTITGVQADDEAIYYCGSWDSNTDSGIFGAGTTLTVL
modifications: mouse constant regions
binding activity against mouse FSTL1 ([2]; ELISA, FIG. 95B): specific and equivalently strong binding activity
bone metastasis (GFP-positive tumor cells in bone marrow) [3]: suppressed
affinity in an assay system using surface plasmon resonance [1]: strong affinity

affinity in an assay system using surface plasmon resonance [1]: strong affinity
B5: #7-34: chicken-mouse chimeric anti-FSTL1 antibody clone; variable regions SEQ ID NO: 787 (light), 789 (heavy) (antibody, V domains shown)
VH: B1 VH
VL: B1 VL with N45Y, K61T, N66S, D87E, S88G, S90T
modifications: mouse constant regions
bone metastasis (GFP-positive tumor cells in bone marrow) [3]: no suppressive effect was seen

binding activity against mouse FSTL1 [2, 4]: no binding activity
B6: #5-8: chicken-mouse chimeric anti-FSTL1 antibody clone; variable regions SEQ ID NO: 771 (light), 773 (heavy) (antibody, V domains shown)
VH: AVTLDESGGGLQTPGGGLSLVCKGSGFTFSSFNMFWVRQAPGKGLEWVAGIGKDGVPKYGTAVDGRATISKDNGQSTMRLQLNNLRAEDTGTYFCAKAAGGCSYDWCGIYTGDIDTWGHGTEVIVSS
VL: ASTQPSSVSANPGEAVKITCSGGSGSYYGWYQQKSPGSAPVTVIYNNNQRPSDIPSRFSGSKSGSTATLTITGVQAEDEAVYFCGGYDSSTGHGGIFGAGTTLTVL
modifications: mouse constant regions

binding activity against mouse FSTL1 [2, 4]: very slightly exhibited binding activity
B7: #8-1: chicken-mouse chimeric anti-FSTL1 antibody clone; variable regions SEQ ID NO: 791 (light), 793 (heavy) (antibody, V domains shown)
VH: B6 VH with G17A, T61A, T111A
VL: B6 VL with T91S
modifications: mouse constant regions
bone metastasis (GFP-positive tumor cells in bone marrow) [3]: suppressed
